What was measured:
[1] = tested on: RACPP2
[2] = tested on: FRET-ACPP 2
[3] = tested on: RACPP1
[4] = tested on: Cy7-NH-e9-c(S-Peg12) oDPRSFL-r9-c(Cy5)-CONH2 (5, RACPPDPRSFL)
[5] = tested on: Cy7-NH-e9-c(S-Peg12)oPLGC(Me)AG-r9-c(Cy5)-CONH2 (20, RACPPPLGC(Me)AG)
[6] = tested on: Cy7-NH-e9-c(S-Peg12) oPPRSFL-r9-c(Cy5)-CONH2 (10, RACPPPPRSFL)
Sequence of Cy7-NH-e9-c(S-Peg12) oPPRSFL-r9-c(Cy5)-CONH2 (10, RACPPPPRSFL) (chain, as listed by the source): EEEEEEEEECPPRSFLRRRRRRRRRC

Sequence of RACPP1 (chain, as listed by the source): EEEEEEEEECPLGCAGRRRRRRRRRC
Sequence of Cy7-NH-e9-c(S-Peg12) oDPRSFL-r9-c(Cy5)-CONH2 (5, RACPPDPRSFL) (chain, as listed by the source): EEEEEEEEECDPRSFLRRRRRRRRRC
Sequence of MMP-9 (chain, as listed by the source): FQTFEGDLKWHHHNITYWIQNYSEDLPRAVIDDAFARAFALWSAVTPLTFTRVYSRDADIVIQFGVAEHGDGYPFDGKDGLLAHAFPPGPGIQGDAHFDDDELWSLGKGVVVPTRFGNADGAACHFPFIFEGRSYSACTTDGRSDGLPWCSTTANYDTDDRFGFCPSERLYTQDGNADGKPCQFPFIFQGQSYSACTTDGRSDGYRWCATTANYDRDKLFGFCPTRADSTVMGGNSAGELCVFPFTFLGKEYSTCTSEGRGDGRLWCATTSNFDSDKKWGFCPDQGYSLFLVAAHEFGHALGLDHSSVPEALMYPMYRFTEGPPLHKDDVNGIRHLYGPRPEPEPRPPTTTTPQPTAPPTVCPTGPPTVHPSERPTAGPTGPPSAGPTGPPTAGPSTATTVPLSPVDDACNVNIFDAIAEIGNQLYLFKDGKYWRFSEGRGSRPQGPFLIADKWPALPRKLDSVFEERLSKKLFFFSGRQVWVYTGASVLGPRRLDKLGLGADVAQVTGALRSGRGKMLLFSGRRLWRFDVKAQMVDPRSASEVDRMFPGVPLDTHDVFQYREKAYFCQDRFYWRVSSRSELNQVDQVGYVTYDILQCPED
Sequence of RACPP2 (chain, as listed by the source): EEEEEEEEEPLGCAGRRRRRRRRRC

Substance | peptide cleavage, tricine SDS-PAGE with Cy5 and Cy7 imaging [1] | fraction of peptide cleaved, HPLC [2] | increase of the Cy5 peak, extrapolated to 100% cleavage [2] | decrease in Cy7 re-emission on cleavage, in mouse plasma [3] | extent of cleavage [3] | increase in Cy5 emission on cleavage, in mouse plasma [3] | increase in the ratio of 670/780 nm emissions on cleavage [3] | kcat/Km [4] | peptide cleavage, SDS-PAGE with Cy5/Cy7 ratio imaging [4] | peptide cleavage, SDS-PAGE with Cy5/Cy7 ratio imaging [5] | change in Cy5/Cy7 emission ratio on cleavage, in plasma [6] | decrease in Cy7 re-emission on cleavage, in plasma [6] | increase in Cy5 emission on cleavage, in plasma [6] | kcat/Km [6] | peptide cleavage, SDS-PAGE with Cy5/Cy7 ratio imaging [6] | kcat/Km (cleavage activity) [6]
MMP-9 | All three components (intact uncleaved peptide, r9 and e9 fragments) are well separated and can be seen as distinct bands in the gel | 87% of the peptide had been cleaved | the Cy5 peak increases about 7 fold | decreased Cy7 re-emission by ˜4 fold | after (red dashed curve)>95% complete cleavage with MMP-9 | increased Cy5 emission by ˜10 fold | net 40-fold increase in the ratio of 670/780 nm emissions |  |  |  |  |  |  |  |  | 
thrombin |  |  |  |  |  |  |  | kcat/km=1.2×10^4 M^-1s^-1 | cleaved by thrombin in a time dependent manner | not cleaved by any of the pro-coagulation enzymes | 34 fold change in Cy5/Cy7 emission ratio | 3.8 fold decrease in Cy7 re-emission | 8.8 fold increase in Cy5 emission | 7300 M⁻¹ s⁻¹ | cleaved by thrombin in a time dependent manner and that RACPPPPRSFL(10) is selective for thrombin | 
factor Xa |  |  |  |  |  |  |  | 6200 M⁻¹ s⁻¹ |  | not cleaved by any of the pro-coagulation enzymes |  |  |  |  |  | no detectable activity towards RACPPPPRSFL
